Test results published in patent US20160083466A1 (Regeneron, published 2016).

T1: human IL-25 expressed with a C-terminal myc-myc-hexahistidine tag (human)
T1 chain: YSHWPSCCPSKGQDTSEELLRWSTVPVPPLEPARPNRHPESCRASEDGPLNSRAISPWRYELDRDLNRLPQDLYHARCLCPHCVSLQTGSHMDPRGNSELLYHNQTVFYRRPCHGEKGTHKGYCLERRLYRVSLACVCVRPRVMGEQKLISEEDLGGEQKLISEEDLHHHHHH

T2: monkey IL-25 expressed with a C-terminal myc-myc-hexahistidine tag (M. fascicularis (cynomolgus monkey))
T2 chain: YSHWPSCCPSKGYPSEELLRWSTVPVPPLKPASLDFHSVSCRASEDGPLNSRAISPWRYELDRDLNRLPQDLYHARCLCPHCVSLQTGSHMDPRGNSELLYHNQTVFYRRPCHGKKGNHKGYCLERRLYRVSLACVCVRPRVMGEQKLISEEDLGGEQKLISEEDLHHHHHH

T3: mouse IL-25 expressed with a C-terminal myc-myc-hexahistidine tag (mouse)
T3 construct: also called Mouse IL-25-MMH; mIL-25-MMH
T3 chain: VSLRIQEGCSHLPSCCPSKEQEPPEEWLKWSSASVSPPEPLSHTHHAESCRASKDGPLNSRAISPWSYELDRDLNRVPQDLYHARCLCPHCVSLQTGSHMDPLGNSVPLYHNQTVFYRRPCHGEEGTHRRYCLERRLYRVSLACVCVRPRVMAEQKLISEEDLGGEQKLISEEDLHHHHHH

T4: rat IL-25 expressed with a C-terminal myc-myc-hexahistidine tag (rat)
T4 construct: also called Rat IL-25-MMH
T4 chain: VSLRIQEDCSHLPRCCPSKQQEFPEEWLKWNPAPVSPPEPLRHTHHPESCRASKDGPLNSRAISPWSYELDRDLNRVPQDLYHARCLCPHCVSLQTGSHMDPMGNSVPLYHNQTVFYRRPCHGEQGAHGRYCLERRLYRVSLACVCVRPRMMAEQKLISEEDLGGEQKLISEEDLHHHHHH

T5: human IL-25 expressed with a C-terminal myc-myc-hexahistidine tag (human)
T5 construct: also called human IL-25-MMH; hIL-25-MMH
T5 chain: T1 chain

T6: monkey IL-25 expressed with a C-terminal myc-myc-hexahistidine tag (M. fascicularis (cynomolgus monkey))
T6 construct: also called monkey IL-25-MMH; MfIL-25-MMH
T6 chain: T2 chain

T7: mouse IL-25 expressed with a C-terminal myc-myc-hexahistidine tag (mouse)
T7 construct: also called mouse IL-25-MMH; mIL-25-MMH
T7 chain: T3 chain

T8: rat IL-25 expressed with a C-terminal myc-myc-hexahistidine tag (rat)
T8 construct: also called rat IL-25-MMH
T8 chain: T4 chain

B1: H4H10903P (antibody, human IgG4, V domains shown)
VH: QVQLQESGPGLVKPSETLSLTCTVSGGSINSYSWTWIRQPPGKGLEWIGNIYNSENTNYNPSLKSRVTISVDTSKSQVSLKLNSVTAADTAVYYCARTYNWNYEIGAMGVWGQGTTVTVSS
VL: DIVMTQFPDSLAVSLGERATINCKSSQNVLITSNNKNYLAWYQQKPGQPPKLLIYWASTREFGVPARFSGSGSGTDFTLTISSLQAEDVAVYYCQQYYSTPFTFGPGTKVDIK
notes: H4H prefix = human IgG4 Fc
B2: H4H10900P (antibody, human IgG4, V domains shown)
VH: QVQLQESGPGLVRPSETLSLICTVSGGSINSYYWSWIRQPPGKGLEWIGYIYYSGSTNYNPSLKSRVTISGDTSKNQFSLKLSSVTAADTAVYYCARGVIWNYELREFDYWGQGTLVTVSS
VL: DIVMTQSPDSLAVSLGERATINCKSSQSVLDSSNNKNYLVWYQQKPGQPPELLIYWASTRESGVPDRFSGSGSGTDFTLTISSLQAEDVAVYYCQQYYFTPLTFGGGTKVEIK
B3: H2M11008N (antibody, V domains shown)
VH: QVQLQESGPGLVKPSETLSLTCTVSGGSISSHYWSWIRQPPGKGLEWIGFIYYSGSTNFNPSLKSRVTISIDTSKNQFSLKLSSVTAADTAVYYCARHDYNDYELNYFDLWGRGTLASVSS
VL: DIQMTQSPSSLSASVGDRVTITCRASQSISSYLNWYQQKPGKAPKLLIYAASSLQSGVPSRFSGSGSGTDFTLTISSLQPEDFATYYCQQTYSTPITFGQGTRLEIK
notes: also called H2aM11008N
B4: H1M11009N (antibody, mouse IgG1, V domains shown)
VH: EVQLVESGGGLVEPGGSLRLSCVASGFTFSNAWMNWVRQAPGKGLEWVGHIERKTDGGTTDFAAPVKGRFTISRDDSKNTLYLQMNSLKTEDTAVYYCTTVGPYSVPFDYWGQGTLVTVSS
VL: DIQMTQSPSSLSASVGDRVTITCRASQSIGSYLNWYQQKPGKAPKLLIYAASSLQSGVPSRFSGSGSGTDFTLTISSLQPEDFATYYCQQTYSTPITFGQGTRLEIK
notes: also called 12
B5: H4H10901P (antibody, human IgG4, V domains shown)
VH: QLQLQESGPGLVRPSETLSLTCSVSSGSIRSSNYYWGWIRQPPGKGLEWIGNIYYSGNTFYNPSLKGRVTISVDTSKNQFSLKLSSVTATDTAVYYCARQGYSDYELNWFDPWGQGTLVTVSS
VL: DIVMTQSPDSLVLSLGERATFNCKSSQSVLDSSNNKNYLAWYQQKPGQPPKLLIYWASTRESGVPDRFSGSGSGTDFSLTISSLQAEDVALYYCQQFYNSPWTFGQGTKVEIK
notes: H4H prefix = human IgG4 Fc
B6: H4H10864P (antibody, human IgG4, V domains shown)
VH: QVQLQESGPGLVKPSETLSLTCTVSGGSISNYFWSWIRQPPGKGLEWIGFNYNSGSTNYNPSLKSRVTISVDTSKNQFSLKLSSVTAADTAVYYCARGYNWNYEIAWFDPWGQGTLVTVSS
VL: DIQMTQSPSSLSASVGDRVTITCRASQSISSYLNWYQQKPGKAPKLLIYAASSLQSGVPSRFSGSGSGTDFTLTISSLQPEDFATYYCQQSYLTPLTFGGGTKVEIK
B7: H4H10907P (antibody, human IgG4, V domains shown)
VH: EVQLVESGGGLVQPGGSLRLSCAASGFTFSNYDIHWVRQVPGKGLEWISTIGSAGDTFYPGSVKGRFTISRENAKNSLYLQMNSLRAGDSAVYYCARGDNWNYVSWFFDLWGRGTLVTVSS
VL: DIQLTQSPSFLSTSVGDRVTITCWASQDISSFLAWYQQKPGKAPKLLIYAASVLQSGVPSRFSGSGSGTEFTLTISSLQPEDFATYYCQQVNSYPITFGQGTRLEIK
notes: H4H prefix = human IgG4 Fc
B8: H4H10906P (antibody, human IgG4, V domains shown)
VH: QVQLQESGPGLVKPSETLSLTCTVSGGSISSYYWSWIRQPPGKGLEWIGFIYYSGSTNYNPSLKSRVTISVDTSKNQFSLKLSSVTAADTAVYYCARHDSDYELYGMDVWGQGTTVTVSS
VL: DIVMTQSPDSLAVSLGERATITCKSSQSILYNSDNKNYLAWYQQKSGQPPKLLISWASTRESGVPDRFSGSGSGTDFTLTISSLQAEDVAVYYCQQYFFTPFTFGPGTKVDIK
notes: H4H prefix = human IgG4 Fc

Key:
[1] = molecular target: T1, human IL-25 expressed with a C-terminal …; experiment: cell-based or functional assay
[2] = molecular target: T2, monkey IL-25 expressed with a …; experiment: cell-based or functional assay
[3] = molecular target: T2, monkey IL-25 expressed with a …; experiment: SPR Biacore, antibody captured, 37C;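 as to 100 nM Monkey IL-25-MMH Bound (RU): biacore 4000 surface plasmon resonance biosensor measuring binding of IL-25-MMH to purified anti-IL-25 antibodies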;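 as to 100 nM Mouse IL-25-MMH Bound (RU): Real-time sensorgrams of IL-25-MMH binding to purified anti-IL-25 antibodies, rate constants obtained by fitting a 1:1 binding model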
Experimental: (§1) Equilibrium dissociation constants (KD values) for IL-25 binding to purified anti-IL-25 antibodies were determined using a real-time surface plasmon resonance biosensor assay on a Biacore 4000 instrument (GE Healthcare). […] All the IL-25 reagents were expressed with a C-terminal myc-myc-hexahistidine tag (referred to herein as “IL-25-MMH”). […] Kinetic association (kₐ) and dissociation (kd) rate constants were determined by fitting the real-time sensorgrams to a 1:1 binding model using Scrubber 2.0c curve fitting software.

[4] = molecular target: T3, mouse IL-25 expressed with a C-terminal …; experiment: SPR Biacore, antibody captured, 25C;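 as to 100 nM Rat IL-25-MMH Bound (RU): purified anti-IL-25 antibodies were tested by real-time surface plasmon resonance on a Biacore 4000, with rate constants obtained from sensorgram fits to a 1:1 binding model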
Experimental: as §1

[5] = molecular target: T3, mouse IL-25 expressed with a C-terminal …; experiment: SPR Biacore, antibody captured, 37C;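 as to 100 nM Monkey IL-25-MMH Bound (RU): biacore 4000 surface plasmon resonance biosensor measuring binding of IL-25-MMH to purified anti-IL-25 antibodies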;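 as to 100 nM Mouse IL-25-MMH Bound (RU): Real-time sensorgrams of IL-25-MMH binding to purified anti-IL-25 antibodies, rate constants obtained by fitting a 1:1 binding model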
[6] = molecular target: T4, rat IL-25 expressed with a C-terminal …; experiment: SPR Biacore, antibody captured, 25C;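 as to 100 nM Rat IL-25-MMH Bound (RU): purified anti-IL-25 antibodies were tested by real-time surface plasmon resonance on a Biacore 4000, with rate constants obtained from sensorgram fits to a 1:1 binding model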
Experimental: as §1

[7] = molecular target: T4, rat IL-25 expressed with a C-terminal …; experiment: SPR Biacore, antibody captured, 37C;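 as to 100 nM Monkey IL-25-MMH Bound (RU): biacore 4000 surface plasmon resonance biosensor measuring binding of IL-25-MMH to purified anti-IL-25 antibodies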;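 as to 100 nM Mouse IL-25-MMH Bound (RU): Real-time sensorgrams of IL-25-MMH binding to purified anti-IL-25 antibodies, rate constants obtained by fitting a 1:1 binding model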
Experimental: as §1

[8] = molecular target: T1, human IL-25 expressed with a C-terminal …; experiment: BLI Octet, hIL-25-MMH captured on anti-Penta-His sensor, 25C
Experimental: Binding competition between anti-IL-25 monoclonal antibodies was determined using a real time, label-free bio-layer interferometry assay on an Octet QK384 biosensor (Pall ForteBio Corp.).
The biosensors were washed in HBST kinetics buffer in between every step of the experiment. The real-time binding response was monitored during the course of the experiment and the binding response at the end of every step was recorded.

[9] = molecular target: T1, human IL-25 expressed with a C-terminal …; experiment: competition ELISA, 2 nM hIL-25-MMH binding to coated hIL-17RB-hFc
Experimental: (§2) Data analysis was performed using a sigmoidal dose-response model within Prism™ software (GraphPad). […] The absorbance values of the wells containing the highest concentration for each antibody were used to determine the percent maximum blockade.

[10] = molecular target: T1, human IL-25 expressed with a C-terminal …; experiment: competition ELISA, 2 nM hIL-25-MMH binding to coated hIL-17RB-hFc; (*) below theoretical bottom of the assay
Experimental: as §2

[11] = molecular target: T5, human IL-25 expressed with a C-terminal …; experiment: SPR Biacore, captured mAb, 25°C;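 as to 100 nM Human IL-25-MMH Bound (RU): biacore 4000 SPR with IL-25-MMH as analyte over purified anti-IL-25 antibodies, association and dissociation rates derived from fitting sensorgrams to a 1:1 binding model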;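 as to 100 nM Monkey IL-25-MMH Bound (RU): Real-time surface plasmon resonance on a Biacore 4000, with IL-25-MMH binding to purified anti-IL-25 antibodies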
Experimental: as §1

[12] = molecular target: T5, human IL-25 expressed with a C-terminal …; experiment: SPR Biacore, captured mAb, 37°C
Experimental: as §1

[13] = molecular target: T6, monkey IL-25 expressed with a …; experiment: SPR Biacore, captured mAb, 25°C;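 as to 100 nM Human IL-25-MMH Bound (RU): biacore 4000 SPR with IL-25-MMH as analyte over purified anti-IL-25 antibodies, association and dissociation rates derived from fitting sensorgrams to a 1:1 binding model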;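 as to 100 nM Monkey IL-25-MMH Bound (RU): Real-time surface plasmon resonance on a Biacore 4000, with IL-25-MMH binding to purified anti-IL-25 antibodies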
Experimental: as §1

[14] = molecular target: T7, mouse IL-25 expressed with a C-terminal …; experiment: SPR Biacore, captured mAb, 25°C and 37°C
Experimental: as §1

[15] = molecular target: T8, rat IL-25 expressed with a C-terminal …; experiment: SPR Biacore, captured mAb, 25°C and 37°C
Experimental: as §1

Row | Binder | IC50, luciferase reporter cells, 12 pM MfIL-25-MMH [2] | 100 nM Monkey IL-25-MMH Bound (RU) [3] | Kd [3] | koff [3] | kon [3] | t½ [3] | 100 nM Mouse IL-25-MMH Bound (RU) [4] | 100 nM Mouse IL-25-MMH Bound (RU) [5] | 100 nM Rat IL-25-MMH Bound (RU) [6] | 100 nM Rat IL-25-MMH Bound (RU) [7] | 50 ug/mL mAb-1 Binding (nm) [8] | % Maximum blocking of 200 nM antibody [9] | IC50 [10] | 100 nM Human IL-25-MMH Bound (RU) [11] | Kd [11] | koff [11] | kon [11] | t½ [11] | 100 nM Human IL-25-MMH Bound (RU) [12] | Kd [12] | also measured
1 | B1 | 6e-11 M | 66 RU | 0.0374 nM | 6.59e-05 s⁻¹ | 1.76e+06 M⁻¹ s⁻¹ | 175 min | 0 RU | 1 RU | 1 RU | 2 RU | 1.03 nm | 91% | 0.24 nM | – | – | – | – | – | – | – | IC50, luciferase reporter cells, 5 pM hIL-25-MMH [1]: 1.4e-10 M; binding result [4]: no binding (tested: 100 nM); binding result [6]: no binding (tested: 100 nM)
2 | B2 | – | – | – | – | – | – | – | – | – | – | – | – | – | 43 RU | 0.0158 nM | 2.75e-05 s⁻¹ | 1.74e+06 M⁻¹ s⁻¹ | 421 min | 51 RU | 0.035 nM | koff [12]: 9.91e-05 s⁻¹; kon [12]: 2.83e+06 M⁻¹ s⁻¹; t½ [12]: 117 min; 100 nM Monkey IL-25-MMH Bound (RU) [13]: 45 RU; Kd [13]: 4.02 pM; koff [13]: 1.18e-05 s⁻¹; kon [13]: 2.94e+06 M⁻¹ s⁻¹; t½ [13]: 980 min; binding result [14]: no binding (tested: 100 nM); binding result [15]: no binding (tested: 100 nM)
3 | B3 | – | – | – | – | – | – | – | – | – | – | – | – | – | 48 RU | 0.435 nM | 0.00021 s⁻¹ | 482000 M⁻¹ s⁻¹ | 55 min | 60 RU | 1.08 nM | koff [12]: 0.000793 s⁻¹; kon [12]: 734000 M⁻¹ s⁻¹; t½ [12]: 15 min; binding result [14]: no binding (tested: 100 nM); binding result [15]: no binding (tested: 100 nM)
4 | B4 | – | – | – | – | – | – | – | – | – | – | – | – | – | 30 RU | 12.5 nM | 0.00304 s⁻¹ | 242000 M⁻¹ s⁻¹ | 4 min | 30 RU | 21.1 nM | koff [12]: 0.00829 s⁻¹; kon [12]: 393000 M⁻¹ s⁻¹; t½ [12]: 1.4 min; binding result [14]: no binding (tested: 100 nM); binding result [15]: no binding (tested: 100 nM)
5 | B5 | 3.8e-11 M | 64 RU | 0.0464 nM | 0.000165 s⁻¹ | 3.55e+06 M⁻¹ s⁻¹ | 70 min | 1 RU | 2 RU | 0 RU | 1 RU | 0.67 nm | 91% | 0.23 nM | – | – | – | – | – | – | – | IC50, luciferase reporter cells, 5 pM hIL-25-MMH [1]: 5.6e-11 M; binding result [4]: no binding (tested: 100 nM); binding result [6]: no binding (tested: 100 nM)
6 | B6 | – | – | – | – | – | – | – | – | – | – | – | – | – | 75 RU | 0.0168 nM | 4.51e-05 s⁻¹ | 2.68e+06 M⁻¹ s⁻¹ | 256 min | 94 RU | 0.0526 nM | koff [12]: 0.000196 s⁻¹; kon [12]: 3.73e+06 M⁻¹ s⁻¹; t½ [12]: 59 min; 100 nM Monkey IL-25-MMH Bound (RU) [13]: 78 RU; Kd [13]: 12.8 pM; koff [13]: 4.7e-05 s⁻¹; kon [13]: 3.68e+06 M⁻¹ s⁻¹; t½ [13]: 246 min; binding result [14]: no binding (tested: 100 nM); binding result [15]: no binding (tested: 100 nM)
7 | B7 | 1.4e-10 M | 50 RU | 0.0671 nM | 0.000101 s⁻¹ | 1.51e+06 M⁻¹ s⁻¹ | 114 min | 10 RU | 8 RU | 10 RU | 8 RU | 1.74 nm | 87% | 0.55 nM | – | – | – | – | – | – | – | IC50, luciferase reporter cells, 5 pM hIL-25-MMH [1]: 2.2e-10 M; Kd [4]: 58.7 nM; koff [4]: 0.0115 s⁻¹; kon [4]: 196000 M⁻¹ s⁻¹; t½ [4]: 1 min; Kd [5]: 137 nM; koff [5]: 0.0376 s⁻¹; kon [5]: 275000 M⁻¹ s⁻¹; t½ [5]: 0.3 min; Kd [6]: 66.9 nM; koff [6]: 0.0147 s⁻¹; kon [6]: 220000 M⁻¹ s⁻¹; t½ [6]: 0.8 min; Kd [7]: 85.4 nM; koff [7]: 0.0204 s⁻¹; kon [7]: 238000 M⁻¹ s⁻¹; t½ [7]: 0.6 min
8 | B8 | 4.7e-11 M | 73 RU | 0.0431 nM | 0.00013 s⁻¹ | 3.01e+06 M⁻¹ s⁻¹ | 89 min | 1 RU | 2 RU | 2 RU | 3 RU | 0.88 nm | 89% | 0.14 nM | – | – | – | – | – | – | – | IC50, luciferase reporter cells, 5 pM hIL-25-MMH (second assay day) [1]: 2.7e-11 M; binding result [4]: no binding (tested: 100 nM); binding result [6]: no binding (tested: 100 nM)
